The values that follow come from patent US20240270826A1 (NATIONAL RESEARCH COUNCIL OF CANADA, published 2024).

As a reminder, the Kd is the constant that tells how readily two partners part at equilibrium. Higher therefore signals a looser complex. Broadly, the koff is the rate constant with which the complex falls apart. Usually kon stands for the rate constant with which the complex forms. A higher kon goes with faster complex formation. As a reminder, the IC50 is the concentration that inhibits the measured activity by half. Broadly, the IC99 is the point of the concentration-response curve where the effect stands at 99%. Low readings indicate an effect from little substance, high ones a need for much substance.

The labels stand for the following.
B1: NRCoV2-S2F3 VHH (VHH)
VHH: EVQLVQSGGGLVQAGGSLRLSCATSVRILSVPAMGWYRQAPGKEREMVAVITSGGSTNYADSVKGRFTISRDNAKNTVYLQMNSLKLEDTAVYQCNLRDILSQPFWGQGTQVTVSS
B2: NRCoV2-MRed20 VHH (VHH)
VHH: EVQLVESGGGSVQAGGSLRLSCAASGLSFSSYDMGWFRQAPGKEREFVAAIRESGSGTYYADSVKGRFTISRDNAKNTVYLQVSSLKPEDTAVYTCAAKPPFYGSGTYSTPRAYLYWGQGTQVTVSS
B3: NRCoV2-MRed06 VHH (VHH)
VHH: EVQLVESGGGLVQAGGSLRLSCAASGFTLAYYAIGWFRQAPGKEREGVSCISSSDGSAHYADSVKGRFTISRDNAKNTVSLQMNSLKPEDTAVYYCATDSFSSCSDYESGMDFWGKGTQVTVSS
B4: NRCoV2-SR16 VHH (VHH)
VHH: QVQLVQSAGGLVQAGGSLRLSCVVSGTTFSRYHMGWHRQAPGKQRDFVAGISTSGAVTYADSAKGRFTISRDNAKNTVYLEMNSLKLEDTALYYCNTGGWDYRSSTFIMGLNWGQGTQVTVSS
B5: NRCoV2-SR01 VHH (VHH)
VHH: EVQLVQSGGGSVQAGGSLRLSCVASGFTFDNYAIGWFRQAPGKEREGVSCISGNGGVTIYADSVKGRFTISRDNAKNLVYLQMNSLKPEDTAVYYCAATGIRSTWSVYGCSRLAGPYDYWGQGTQVTVSS
B6: NRCoV2-S2G3 VHH (VHH)
VHH: QVQLVQSGGGSVQAGGSLRLSCAASGSTFGIFLMGWRRQAPGKQRELVAHITSGGATNYADSVKGRFTISRDNAKNTVYLQMNSLEPEDTAVYYCYTTKRDDASVYWGQGTQVTVSS
B7: NRCoV2-MRed18 VHH (VHH)
VHH: EVQLVESGGGLVQPGGSLRLSCAASTTVFGRNAMGWYRQAPGKERELVATVSDGGTPNYADSVKGRFTISRDNAKNTIYLQMNSLEPEDTAVYYCNYYNYYYGRNFWGQGTQVTVSS
B8: NRCoV2-S2G4 VHH (VHH)
VHH: QVQLVQSGGGLVQAGGSLTLSCAPSGSTFSGYATNWYRQAPGKQRELVATISSDGDKNYADSVKGRFTISRDNAKNTVYLQMNSLKPEDTAVYYCNKHWWTGDWWGQGTQVTVSS
B9: NRCoV2-MRed07 VHH (VHH)
VHH: EVQLVESGGGLVQPGGSLTLSCAASGSIGPFNTMGWYRQAPGNQREPAAIITRGGVTNYADSVKGRFTISRDNAKNAVYLQMDSLKPDDTAVYYCYANYGWAIPYWGNGTQVTVSS
B10: NRCoV2-S2A4 VHH (VHH)
VHH: QVQLVQSGGGLVQAGGSLRLSCAVSGSPFRSNVMEWYRQAPGKQRELVASISTGGSRTYTDSVKGRFTISRDNAKNEAFLQMNSLKPEDTAVYYCHAAARDSHGIYLLDTWGQGTQVTVSS
B11: NRCoV2-MRed19 VHH (VHH)
VHH: EVQLVESGGGLVQPGGSLRLSCAASTIIFKGQTMGWFRQAPGNERELVATMTTSGSANYADSVKGRFTISRDNEKTVTLQMNSLKPEDTALYYCYMHSVYYGIDYWGKGTQVTVSS
B12: NRCoV2-MRed03 VHH (VHH)
VHH: EVQLVESGGGLVQPGGSLRLSCAAIGFTLDYYAIGWFRQAPGKEREGVSCISSSDGSTYYADSVKGRFTISRDNAKNTVYLQMNSLKPEDTAVYYCATDAFATCDSWYAQIAQYDFRGQGTQVTVSS
B13: NRCoV2-MRed04 VHH (VHH)
VHH: EVQLVESGGGLVQPGRSLRLSCAASGNSFSISTMGWFRQAPGKERELVASIWSDTTTSYADSVKGRFTISTDNTRTKVYLQMSSLNPEDTAVYYCAADRGFVVRGQYDYWGQGTQVTVSS
B14: NRCoV2-MRed22 VHH (VHH)
VHH: EVQLVESGGGLVQPGGSLRLSCAASGSVFASNAMGWYRQAPGKQRELVATISSRGSTNYADSVKGRFTISRDNAKNTVYLQMNSLGPEDTAVYYCNAREFTGFDYWGQGTQVTVSS
B15: NRCoV2-MRed25 VHH (VHH)
VHH: EVQLVESGGGLVQAGGSLRLSCAASGHTFSRYGMGWFRQAPGKEREFVAAISWRGDSTYYRDSVNGRFTISRDNAKNTVYLGMNSLKPEDTAVYYCAAEMWGTATIVASRYTYWGQGTQVTVSS
B16: NRCoV2-SR04 VHH (VHH)
VHH: QVQLVESGGGLVQAGGSLRLSCAASGRTFSSHTVGWYRQAPGKQRDLVAAISMGGNTNYADYADSVKGRFTISRDNAKNTLYLQMNSLKPEDTAVYYCNTAALVGNRLLPMATITWGQGTQVTVSS
B17: NRCoV2-SR03 VHH (VHH)
VHH: AVQLVDSGGGLVQAGGSLRLSCAASGSIFSNNHMGWYRQAPGKQRELVAAISSGGKTNYADFAKGRFTISRDNAKNMVYLQMNSLKPEDTAVYYCNRGGWEYRSSYYIMGPHWGQGTQVTVSS
B18: NRCoV2-MRed11 VHH (VHH)
VHH: EVQLVESGGGLVQAGGSLRLSCAASGFTFSSYAMSWHRQAPGKGLEWVSAINSGGGSTSYADSVKGRFAISRDNAKNTLYLQMNSLKPEDTAVYYCATTISDGSSWSTKSYRGQGTQVTVSS
B19: NRCoV2-20 VHH (VHH)
VHH: EVQLQQSGGGLVQPGGSLRLSCAASGRTFSNYVVGWFRQAPQAPGKDHEFVAVISGSDTETYYADSVKGRFTISRDNAKNTVYLQMNSLKPEDTAVYYCAADRGMSYYYTRATEYYYWGQGTQVTVSS

One experiment deals with T1, Human SARS-CoV-2_Wuhan S (SmT1) (SARS-CoV-2 (Wuhan), UniProt P0DTC2 14-1208). Nature of the experiment: SPR, VHH over immobilised S. (In general: Surface plasmon resonance follows binding to a sensor surface in real time, without labels.)
B1 registered a dissociation constant (Kd) of 3.03 nM, a koff of 0.000473 s⁻¹ and a kon of 156000 M⁻¹ s⁻¹.

The molecule B2 registered a Kd of 0.0918 nM, an off-rate constant (koff) of 1.46e-05 s⁻¹ and a kon of 160000 M⁻¹ s⁻¹.

B3 displayed a Kd of 5.19 nM, a koff of 0.000996 s⁻¹ and a kon of 192000 M⁻¹ s⁻¹.

Take B4: binding was characterised by a dissociation constant (Kd) of 1.96 nM, the koff amounted to 0.000957 s⁻¹ and the on-rate (kon) was found to be 488000 M⁻¹ s⁻¹.

As to B5, the affinity, expressed as Kd, was 0.564 nM; the koff was found to be 0.000805 s⁻¹; the kon came to 1.43e+06 M⁻¹ s⁻¹.

Regarding B6, the Kd amounted to 1.87 nM, the koff was determined as 0.000606 s⁻¹ and the on-rate (kon) was 324000 M⁻¹ s⁻¹.

B7 yielded a Kd of 6.03 nM, a koff of 0.00119 s⁻¹ and a kon of 197000 M⁻¹ s⁻¹.

For the molecule B8, binding was put at a Kd of 0.232 nM, the koff stood at 0.000207 s⁻¹ and the kon worked out at 893000 M⁻¹ s⁻¹.

In turn, B9 displayed a Kd of 0.105 nM, a koff of 0.000481 s⁻¹ and a kon of 4.58e+06 M⁻¹ s⁻¹.

Consider B10, for which binding was put at a Kd of 12.8 nM, the off-rate constant (koff) was 0.000446 s⁻¹ and the kon was 34900 M⁻¹ s⁻¹.

In the case of B11, the Kd is 9.07 nM, the koff turned out to be 0.00118 s⁻¹ and the kon is 131000 M⁻¹ s⁻¹.

In the case of B12, the Kd is 0.508 nM, the koff was 0.000121 s⁻¹ and the kon turned out to be 237000 M⁻¹ s⁻¹.

Take B13: the Kd was 0.863 nM, the koff is 0.00131 s⁻¹ and the kon stood at 1.51e+06 M⁻¹ s⁻¹.

Take B14: the equilibrium dissociation constant (Kd) turned out to be 0.506 nM, the dissociation rate constant (koff) worked out at 0.000176 s⁻¹ and the kon was 347000 M⁻¹ s⁻¹.

For B15, the Kd turned out to be 1.02 nM, the koff was found to be 0.000115 s⁻¹ and the kon turned out to be 112000 M⁻¹ s⁻¹.

For B16, binding was put at a Kd of 0.14 nM, the koff was found to be 0.000515 s⁻¹ and the kon came out at 3.68e+06 M⁻¹ s⁻¹.

The molecule B17 returned a Kd of 1.69 nM, a koff of 0.00113 s⁻¹ and a kon of 670000 M⁻¹ s⁻¹.

In turn, B18 had an equilibrium dissociation constant (Kd) of 6.2 nM, a koff of 0.000283 s⁻¹ and a kon of 45700 M⁻¹ s⁻¹.

For a further experiment, the target named is SARS-CoV spike (S) (SARS-CoV, UniProt P59594 14-1195). In words: SPR, VHH over immobilised S.
In the case of B1, the Kd came out at 4.91 nM, the koff turned out to be 0.00139 s⁻¹ and the kon is 282000 M⁻¹ s⁻¹.

Molecule B2 came in with a Kd of 10.7 nM, a koff of 0.00406 s⁻¹ and a kon of 380000 M⁻¹ s⁻¹.

In the case of B3, the binding result is “no binding”.

For B4, the binding result is “no binding”.

The molecule B5 gave a Kd of 0.154 nM, a koff of 0.000105 s⁻¹ and a kon of 681000 M⁻¹ s⁻¹.

The molecule B6 returned a Kd of 4.27 nM, a koff of 0.0008 s⁻¹ and an association rate constant (kon) of 187000 M⁻¹ s⁻¹.

Consider B7, for which binding was put at a Kd of 22.5 nM, the dissociation rate constant (koff) was 0.00677 s⁻¹ and the kon was determined as 300000 M⁻¹ s⁻¹.

In turn, B8 returned a Kd of 0.799 nM, a koff of 0.000735 s⁻¹ and an association rate constant (kon) of 920000 M⁻¹ s⁻¹.

Consider B9, for which the binding result is listed as “no binding”.

Consider B10, for which the binding result is “no binding”.

In turn, B11 displayed a Kd of 24.6 nM, a koff of 0.00614 s⁻¹ and an on-rate constant (kon) of 249000 M⁻¹ s⁻¹.

Turning to B12, the binding result is “no binding”.

Molecule B13 came in with a Kd of 300 nM, a koff of 0.097 s⁻¹ and a kon of 323000 M⁻¹ s⁻¹.

B14: the binding result is “no binding”.

Regarding B15, the Kd turned out to be 2.29 nM, the koff worked out at 5.01e-05 s⁻¹ and the kon amounted to 21800 M⁻¹ s⁻¹.

Regarding B16, the binding result is given as “no binding”.

On to B17, for which the binding result is “no binding”.

Consider B18, for which the binding result is “no binding”.

For another experiment, the target named is T1, Human SARS-CoV-2_Wuhan S (SmT1). Nature of the experiment: SPR, VHH over immobilised S. This is another data set of the same source.
In turn, B1 returned an equilibrium dissociation constant (Kd) of 3.03 nM.

For the molecule B2, the Kd amounted to 0.092 nM.

With B3, the Kd stood at 5.2 nM.

As to B4, the dissociation constant (Kd) worked out at 2 nM.

With B5, binding was characterised by a dissociation constant (Kd) of 0.56 nM.

B6: the Kd turned out to be 1.87 nM.

Regarding B7, binding was put at a Kd of 6.03 nM.

For B8, the Kd came to 0.23 nM.

As to B9, the Kd came out at 0.11 nM.

B10 returned a Kd of 12.8 nM.

Regarding B11, the affinity, expressed as Kd, was 9.07 nM.

For B12, the dissociation constant (Kd) stood at 0.51 nM.

Molecule B13 yielded a Kd of 0.86 nM.

In turn, B14 gave a Kd of 0.51 nM.

The molecule B15 registered a Kd of 1.02 nM.

As for B16, the Kd worked out at 0.14 nM.

In turn, B17 yielded a Kd of 1.69 nM.

B18 showed a Kd of 6.2 nM.

A further experiment addresses Human SARS-CoV-2_Wuhan S (SmT1) (SARS-CoV-2 (Wuhan), UniProt P0DTC2 14-1208). Nature of the experiment: flow cytometry SVNA, VHH vs biotin-S binding to Vero E6 ACE2. Background: A flow cytometer gives signals particle by particle.
On to B19, for which the IC50 was determined as 5.1 nM, the IC99 was 1370 nM and the Imax % was found to be 43%.
